From PMC11032447 (2024)

B1: mouse secretagogin [mouse] / helix-b of the Habc domain of mouse syntaxin-4 [mouse] (parent complex)
chain 1: MDNARRKTPARLDAACFWQIWQRFDKEEKGYIRETELDAFFDHLLAKSGTEDTLMEENVQKVKEQLMTSHNVSKEGRILMKELASMFLSEDENFLLFFRLETPLDNSVEFMQIWRKYDADSSGFISAAELCNFLRDLFLHHKKNISEAELEEYTSTMMKIFDKNKDGRLDLNDLARILALQENFLLQFKMDASSTEERKRDFEKIFAHYDVSKTGALEGPEVDGFVKDMMELVQPSISGVDLDKFREILLRHCDVNKDGKIQKSELALCLGLKINP
chain 2: TPLPEESMKQGLQNLREEIKQLGREVRAQLKAIEPQKE

Variants of: B1
Test: ITC

Variant	Kd
chain 1 MDNARRKTPARLDAACFWQIWQRFDKEEKGYIRETELDAFFDHLLAKSGTEDTLMEENVQKVKEQLMTSHNVSKEGRILMKELASMFLSEDENFLLFFRLETPLDNSVEFMQIWRKYDADSSGFISAAELCNFLRDLFLHHKKNISEAELEEYTSTMMKIFDKNKDGRLDLNDLARILALQENFLLQFKMDASSTEERKRDFEKIFAHYDVSKTGALEGPEVDGFVKDMMELVQPSISGVDLDKFREILLRHCDVNKDGKIQKSELALCAGLKINP [chain 1 L270A]	16.2 µM
